“And” between values parts separate entries of the source, which are not always exact repeats. Equal values may be shown once.
B1: PKL-Nluc fusion, nanoluciferase fused to the N-terminus of PKL, recombinant (enzyme)
chain: not shown
notes: Pyruvate kinase, liver isoform (PKL), human; The bands were detected by in-gel luminescence of the Nluc part; source: recombinant, expressed and purified; not shown: Nluc, N-terminal, kept
B2: liver isoform of pyruvate kinase (PKL), wild type, recombinant (enzyme)
chain: not shown
notes: Pyruvate kinase, liver isoform (PKL), human; The same molecule is used for the native PAGE protein and for the crystallised protein; Construct details are probably in the Supporting Information; also called PKLwt; source: recombinant

Biological target: the molecule itself
Test: native gel or EMSA; recombinant protein incubated with tracer IV (0.15-10 uM) or DMSO at room temperature, native PAGE on 3%-12% bis-tris gel; bands seen by in-gel luminescence (Nluc substrate), colloidal blue staining and western blot; no FBP

Protein | stoichiometry N
B1 | 4 and 2
B2 | 4
